Source: the Immune Epitope Database (IEDB)

Key:
HLA-A*03:01 = assay: IEDB peptide-MHC binding, purified MHC/competitive/fluorescence; ≥ and ≤ were set here for values at or beyond the usual limits of such assays; settings: source organism: Vaccinia virus
HLA-A*11:01 [1] = assay: as above; settings: source organism: Vaccinia virus
HLA-A*02:01 = assay: as above
HLA-A*01:01 [2] = assay: as above
HLA-B*15:01 [3] = assay: as above; settings: source organism: Zaire ebolavirus
HLA-A*11:01 [4] = assay: IEDB peptide-MHC binding, purified MHC/competitive/fluorescence; filed as Kd, often an IC50 or EC50 that approximates it; ≥ and ≤ were set here for values at or beyond the usual limits of such assays; settings: source organism: Human immunodeficiency virus 1
HLA-A*02:06 = assay: as above; settings: source organism: Human immunodeficiency virus 1
HLA-B*18:01 = assay: as above; settings: source organism: Human immunodeficiency virus 1
HLA-A*26:02 = assay: as above; settings: source organism: Human immunodeficiency virus 1
HLA-B*15:01 [5] = assay: as above; settings: source organism: Human immunodeficiency virus 1
HLA-A*30:01 = assay: as above; settings: source organism: Human immunodeficiency virus 1
HLA-B*15:17 = assay: as above; settings: source organism: Human immunodeficiency virus 1
HLA-A*02:03 = assay: as above; settings: source organism: Human immunodeficiency virus 1
HLA-A*01:01 [6] = assay: as above; settings: source organism: Human immunodeficiency virus 1
[7] = source organism: Vaccinia virus
[8] = source organism: Zaire ebolavirus

AVDRGCLRI
IC50 (HLA-A*03:01): 16.1 µM | IC50 (HLA-A*11:01 [1]): 11.8 µM | IC50 (HLA-A*02:01; [7]): 3.51 µM | IC50 (HLA-A*01:01 [2]; [7]): ≥ 183 µM

FLESGAVKY
IC50 (HLA-B*15:01 [3]): 19.5 µM | IC50 (HLA-A*02:01; [8]): 26.3 µM | IC50 (HLA-A*01:01 [2]; [8]): 3.4 µM

RSLYNTVAVLY
Kd (HLA-A*11:01 [4]): 1.52 µM | Kd (HLA-A*02:06): 0.597 µM | Kd (HLA-B*18:01): 0.25 µM | Kd (HLA-A*26:02): 2.36 µM | Kd (HLA-B*15:01 [5]): 1.32 µM | Kd (HLA-A*30:01): ≥ 20 µM | Kd (HLA-B*15:17): 0.0118 µM | Kd (HLA-A*02:03): 1.36 µM | Kd (HLA-A*01:01 [6]): ≥ 20 µM
